Results from the domain aggregation screens of Martell et al. (2025).

Test: soluble fraction after stress (log2 fold change); higher = more stays soluble; pooled small domains, quantitative proteomics
Conditions: stress: 50 degC
Outline: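 The measure of aggregation propensity here is the base-two logarithm of the fold change in the soluble amount of each protein after stress. A higher value means more of that protein stays in solution. Stress was applied at 50°C to pooled libraries of small protein domains, read out by high-throughput quantitative proteomics.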

Row | Sequence | soluble fraction (log2)
1 | HMKEIGGGPASKFIYYLIKTKHPIEQGDLIGITHLPRRTVQSAIEDLKNQGFIIERNSLDDSRRKVYYPVK | 0.000762
2 | HMDINLSENLVRLRHAKKLTQEQLADFLGVTKASVSKWETRQSLPDILLLPRLAAFYGVTVDELIGYEP | -0.253
3 | HMAIGSRLKVTTDATNLNIRSTPSTEGDIVGKAAHHEIVTLVEKTDDSWWKIKTNDGEEGYAYAQYLSPV | 0.12
4 | HMTSVAYVIDRINKIQNVYSELEALGLKDEFEKILSNIEDLSKKDIREIKTLLKTKGVIKNLDDLNVKL | -0.0059
5 | HMAVDAASSTIGKNVEVSVANEKGDYENFNGKVKSASIKDGVVYLELELKDTGEIKEVPYSSLTKIT | 0.0595
6 | HMNAELSTVQAAEVLNVSRPFLIKLLEDGAIPHRKVGKHRRVRMEDVMSYKAAIDTEREAVLDQLAA | 0.123
7 | HMVAREAYTTQNLTDVFSISRQAVEKRAKREGWQSVPRKGRGGGKLWVVSSMPAETRDLLASLLLRK | -0.609
8 | HMGRGAAKGPLKELGLDPVTGRPLVVKDGKFGMYVTDGETNAGLRRGDLVEQLTLDRGMELLAERRARADQ | 0.203
9 | HMLKEDSAYELGLRIFDQALNDYGTSFIDLKEDEYKKVLSIYGYSNPRQLIINIGLGNVIPHLLARDITE | -1.23
10 | HMGVEVEVPNVKGKLVADAEYELGLAQLTPVRTDSAYNRNLPPGTVLEQLPASGSHVKEGREIYLTINST | 0.264
11 | HMSLSDADVERLLEVAIDIESLEEREGLYYQANESEPYSGWGKLMYDSGQVERLVPYKDGRWEGLWTIW | -1.04
12 | HMILNPQELGERIRKLRLKRNKTQSYFADMLYISSSYLALIESGKRVPNLDLLIHIAKFTDVTLDYLVFG | -1.22
13 | HMAQISDESALYDLVKSVLDANPQSIADYKAGRDRALGFLMGQAMKLSKGKANPPVINKILKEMLDK | 0.0791
14 | HMPTTNIRAFRLREADPESVKEALSMVMPKTSIYVDARTKSVLVVGLLDELARAAEIVALIDQP | -0.79
15 | HMDLLAESLTRREAEVAALAARGLTNRAIAELFGLSVRTAETHLHRAMGKLGANRREDLLLHADRLDPG | -0.629
16 | HMRMQRYYLTDMSEKGREALPGVLDEMGYAGRYTMSDNSIAINSNMIVLSKAIKRAEDIAHNE | -0.086
17 | HMGANAVAAFTARVRTGPSTGYPVRISVPQGRQVRVISGPYGGWYRVSYQGLTGYTYGGLLRQG | -0.408
18 | HMRHLSVPNRQVEGALDHIRSQGWLAEGMRVFASEDGSARLIPLGPGAPLEMLEPLAKFDVISHEGKPY | -0.0914
19 | HMEKSQIHLIHTRYVNPEQLVPILSMVIPAENIYVKSDSNLIIINGSSEMLREVESIVSKLDVPS | 0.0228
20 | HMYQFFVDPGQIQGKRVTITGSDVNHIKNVLRMRIGEEIAVSNGKDGLEYRFGIDEILEDEVIGTLRFVKE | -0.968
21 | HMQTTKTGTITASSLYVRSGASTSHKVLGTVSKGKTVQIKDTQDGWHKISYNGDHGWVSGKYVSTT | ≥ 0.62
22 | HMESGLPLPRFVSLGADEVNLRTGPGLRYPVAWVFVRKALPVEIVAEFEQWRRVRDFEGAEGWVHKAML | -0.36
23 | HMKNLADNIVALRKKHGLSQEQFAEKIDVTRQAVSNWERRIATPDVETIDLIAKLFDTDLTALVNG | -0.0311
24 | HMKQMNETQQKAFEIYLDSATFETDYKPISEEQLAAKLDALGLKGSSSSINRWKKDFNWAQALQNKVTLAM | -0.11
25 | HMDFSNVNFSQVSDSELDLLMRRASAQGYTQFDLLKIARAQGLTQAEIEKLDKRFKSAETVAYVAENA | 0.0939
26 | HMKNKVTVPKVEGMDKEEAIQALNEVGLGYKAVMQSSDSVAEGKVISQGTAAGKKVDKNTQIIITVSGG | 0.00222
27 | HMGRTVKGVNFVGLRDAGDPVDLAEIYSKEGADELVFLDITATHEKRKTLLDLVTRVAERINIPFTVGGGI | -0.015
28 | HMEASVNAPMPGKIVSVSVSEGQQVNAGDVLLILEAMKMQNEITADAAGTVKAINVNAGQSVKNGDSLVIL | 0.469

Row | Sequence | soluble fraction (log2)
29 | HMNNLNDIIEIIRIYAKNYARNNPSWNHSELINRIRDKALGEAEDYNIRLSEEDLALITELSLRGL | -0.474
30 | HMTTQTGTVKWFNEGKGFGFIAPDDGGKDLFAHFKEIQGTGFKTLAENQRVEFEVTQGQKGPQASKI | -0.0807
31 | HMKQYSFEISKADFKKISENFNFKIINEINDSLIISLNDKNINLDELLIFFVERKIKVRSIENI | -0.986
32 | HMEISNWLEEIGLSRYTETLSEFPLEDLVEFTDDDFKELGVLTPHRKKLLAAIATLNNDASSN | -0.255
33 | HMDRSRAEIDLGHVETAIRTLAEGGMVQEYAIGGRSLKRYKMGELLQLKAELENEINMERRKEKMRQ | 0.197
34 | HMKNSMANVQARREKILSAVDQSEPVAVEGLAQRFNVSITTLRRDLKALSDMGQVKWHHGLVERT | -0.173
35 | HMKLRYRTQEELLGVAREYRRRGLPLSVIVIDFYHWTKFGDWKFDPAYWPDPVGMVRELRDMGVEAAV | -0.203
36 | HMVVDEQRIQTLVSAAEQNSSDPVPRVTLGNLYFDAEQFEEAVKWYEQALALDPRNVNVSTDLGVGYYY | -0.00895
37 | HMKYYIYQGVGASGELTKIAEVTDQKTYTVTGLQAKTTYRFAVSSYNGLRESTKSNIVTVTT | -0.313
38 | HMTSVQDLLRNGDRVGYQNGSTVKYWLEEMGFHKKDLLGYVTVEEYAEALQRGSGNGGVSAIVD | -0.961
39 | HMFVVVPDLIGKTINQFEEDLSELNLKYVVSDSGNFNPEFKINAVLDQSPKANSKVKDGRKIYLTLNAS | -0.432
40 | HMPETAQLTDIQVSRSQAHTGIFSLHYYLTGTDSRGERVRLEISGDDYTRLSGSSSVTVEYYRHTGRIVRY | -1.55
41 | HMSGTFIGGELVKPGEPLTPMQRAAITMGLQMGNTYSPEIMEKYNNAGGSPSKEEFENYQKNKS | 0.101
42 | HMLLSHTAQREGELLTFLRGELALSSGLVKRLKWQNAFFLDGAPVHTNARVKPGQEITVRIEE | -0.143
43 | HMNNLELSEEEKSVLTIIEKEGLIELDKLKTKLELSNKKWDKTLKFLTKNKLAKVVKNDNGLFVEL | 0.0812
44 | HMKAKTYTVQYIDEGKIIKEEELEEGSIINAPEVTKEGHTFIGWYEGEEKYDVYEPITRNLILESKNEIN | -0.137
45 | HMTSLQDLLEELRVIRETLTGSQVLSDMQLFSQLRNLGDIKAALTRMQDNPAAARMVGEVDKLLETMFAS | -0.955
46 | HMTKVMVPNVVGMSRGEAEEALRGVKLQVDLKREVSDDPEVKPEEVLRQTPDAQTSVPQGSVVTLYVADKP | 0.355
47 | HMGKIINMSKVKQVLRLHTQGVSNRRIALDLGLYKGTVNSYIRKIKDHGYDIAEVLKLDDPVLESKLFA | -0.227
48 | HMPLLKIGAQGHDVRVVQEALQRAGYAIEGVTGIFDEATREAVLAFQRDQQLTESGTVDRATWHALRR | 0.134
49 | HMEKAKVPSVIGMTEANAKRTIRDAGFKVGRVTRVESEAYDKGKVIEQQYEAGSELEKKKPISIVVSKGKK | -0.162
50 | HMSTEAFLGTEGEVVLPLLPDGLGKIRLHVADQDVELPARTGGEPIQIRERVVVVRFRDGIAEVEPAP | 0.191
51 | HMQKIENYDQFVQAFKRLSGLDLKLYKENQMKRRINNFINNHGFKENYDQFFQAITGNKELYNAFFKHLTI | -0.172
52 | HMDPTIAAIRKKLKNWTIVEVHMTREELEQAVIDGKVDVFLSSAGFYRRLVRFGARDLATAMSPAYPD | -0.542
53 | HMRSSNEAVSQRRDKILDYISATGRTSTEIVAKEFGVSVMTARRDLLYLMEKRLISKSSSGLFKVDNN | -2.42
54 | HMEIVSTEEKIKRAAEQVFLLRGLEGARMQEIADVAGINKAMLHYYFRNKETLFDVILSEKL | -1.51
55 | HMESSSQLGFELARLVESGNDEEARALVQAKELSEADERKWLYHLGNLLHAAGRPLQASAIWREVGT | 0.0628
